Data published in publication PMC10967448, “ApoE Mimetic Peptide COG1410 Kills Mycobacterium smegmatis via Directly Interfering ClpC’s ATPase Activity” (Antibiotics, 2024).
Square brackets hold non-standard residues; d marks the D form. Ends that are not written are not given here. Aib = CC(C)(N)C(=O)O

Key:
ClpC (S437P) [1] = target: T1, ClpC (S437P) (M. smegmatis); assay: SPR; Biacore 8K; ClpC or ClpC (S437P) amine-coupled on a CM5 chip at pH 4.0 (around 6500 RU); COG1410 flowed at 125 to 2000 nM (2-fold dilutions); PBS pH 7.4, 0.05% tween-20, 25 °C, 30 μL/min; 1:1 Langmuir binding model; settings: both partners purified
T1 construct: also called ClpC variant; ClpC (S437P) variant; source: E. coli BL21 (DE3), pET28a, purified (IMAC on Ni Sepharose 6 FF, desalting)

[2] = target: T2, ClpC (M. smegmatis AAA+ unfoldase, Clp-ATPase) (M. smegmatis); assay: as above; settings: both partners purified
T2 construct: open reading frame amplified from genomic DNA of the wild-type strain; also called recombinant protein ClpC; source: E. coli BL21 (DE3), pET28a, purified (IMAC on Ni Sepharose 6 FF, desalting)

ClpC (S437P) [3] = target: T1, ClpC (S437P); assay: cell-based or functional assay
[4] = target: T2, ClpC (M. smegmatis AAA+ unfoldase, …); assay: cell-based or functional assay

AS[Aib]LRKL[Aib]KRLL (not fully specified (N-terminus, C-terminus)) [COG1410]
Kd (ClpC (S437P) [1]): 1310 nM | koff (ClpC (S437P) [1]): 0.0119 s⁻¹ | kon (ClpC (S437P) [1]): 9900 M⁻¹ s⁻¹ | Kd [2]: 2030 nM | koff [2]: 0.0117 s⁻¹ | kon [2]: 5780 M⁻¹ s⁻¹ | ATPase activity of purified ClpC (S437P) (64 nM) with 10 μM COG1410 against ClpC alone (ClpC (S437P) [3]): ~7.4 fold | proteolytic activity on FITC-casein in the S437PP1P2 system with COG1410 against the control with ClpC alone (ClpC (S437P) [3]): ~7 fold | ATPase activity of purified ClpC (64 nM) with COG1410, dose series; at 10 μM COG1410 against ClpC alone [4]: ~3 fold | proteolytic activity on FITC-casein in the ClpCP1P2 system with 10 μM COG1410 [4]: 4 fold
